Read-outs that look alike come from different tables or passages of the source.
B1: 14A11 rat anti-DLL4 monoclonal antibody (antibody, rat IgG2a, V domains shown)
VH: EVQLQQSGPELAKPGSSVKISCKASGYTFTNSYISWIKQTTGQGLEYVGYINTGSGGADYNEKFKGKATLTVDKSSRTAFMQLSSLTPGDSAVYYCAKSILLGSTCYFDYWGQGVLVTVSS
VL: NTVLTQSPALAVSLGQRVTISCKASRSVSSPMYSYIYWYQQKPGQQPKLLIYRASTLASGVPARFSGSGSGTDFTLNIDPVEADDIATYFCQQSWSDPFTFGSGTKLEIKR
notes: rat IgG2a/K hybridoma mAb; also called MC13-14A11.3A4
B2: 37D10 rat anti-DLL4 monoclonal antibody (antibody, rat IgG2a, V domains shown)
VH: AVQLVESGGGLVQPKESLKISCAASGFTFSNAAMYWVRLAPGKGLEWVARIRTKPNNYATYYAESVKGRFTISRDDSKSMVYVQMDNLKTEDTAMYYCTAAPWRDSYAHVYWGQGVMVTVSS
VL: DIQMTQSPPVLSASVGDRVTLSCKASQNIHKNLDWYQQKHGDAPKLLIYYTDHLQTGVPSRFSGSGSATDYTLTISSLQPEDVATYYCYQYNGGPFTFGSGTKLEIKR
notes: rat IgG2a/k hybridoma mAb; also called 40B10; 37D10 = 40B10
B3: 1A11 chimeric antibody (antibody, human IgG1, V domains shown)
VH: EVQLVESGGGLVQPGRSMKLSCAASGFTFRNFPMAWVRQAPTRGLEWVATISSSDGTTYYRDSVKGRFTISRDNAKSTLYLQVNSLRSEDTATYYCSRGYYNSPFAYWGQGTLVTVSS
VL: DIQMTQSPASLSASLGETVTIECRASEDIYSNLAWYQQKPGNSPQLLIFDTNNLADGVPSRFSGSGSGTQSSLKINSLQSEDVASYFCQQYNNYPPTFGGGTKLELKR
notes: also called Chimera of 1A11; 1A11 (chimera)

Key:
[1] = biological target: T1, mouse DLL4 extracellular domain (mouse, UniProt Q9JI71 27-532); experiment: competition ELISA: biotin-DLL4 ECD to coated huNotch-1
T1 construct: extracellular domain; also called muDLL4 ECD; murine DLL4
T1 sequence (Q9JI71 27-532): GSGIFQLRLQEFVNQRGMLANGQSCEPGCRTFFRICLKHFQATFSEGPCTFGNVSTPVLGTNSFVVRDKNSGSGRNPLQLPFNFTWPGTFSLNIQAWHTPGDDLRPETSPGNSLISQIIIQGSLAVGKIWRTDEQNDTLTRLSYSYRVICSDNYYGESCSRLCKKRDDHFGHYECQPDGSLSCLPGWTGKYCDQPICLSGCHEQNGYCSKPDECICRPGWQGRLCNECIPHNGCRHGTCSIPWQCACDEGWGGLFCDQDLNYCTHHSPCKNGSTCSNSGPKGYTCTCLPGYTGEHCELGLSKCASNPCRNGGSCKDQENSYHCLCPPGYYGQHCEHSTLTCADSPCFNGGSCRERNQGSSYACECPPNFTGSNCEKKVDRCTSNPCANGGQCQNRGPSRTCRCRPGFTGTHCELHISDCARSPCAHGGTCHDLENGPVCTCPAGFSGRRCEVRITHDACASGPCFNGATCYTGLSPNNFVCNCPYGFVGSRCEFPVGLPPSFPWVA
Method: (§1) Plates were then washed 3 times with wash buffer (PBS, 0.05% Tween-20) and blocked with 200 μl/well blocking buffer (D-PBS, 1% BSA, 1 mM CaCl₂, 0.05% Tween-20) for 1 hour at 25° C. While blocking, biotin labeled DLL4 extracellular domain (14 nM) was mixed with antibody (30 pM-66 nM, 3-fold serial dilution in blocking buffer) for 1 hour at 25° C. with shaking. Assay plates were washed after blocking, and incubated with DLL4/antibody mixtures (100 μl/well, 1 hour at 25° C. with shaking). Plates were washed again and 100 μl/well streptavidin conjugated with HRP (Fitzgerald #65R-S104PHRPx, diluted 1:5,000 in blocking buffer) was added for 1 hour at 25° C. with shaking. After a final wash, plates were developed using 100 μl/well substrate (TMB Sigma #T8665), and the reaction was stopped using 100 μl/well 1N HCl, and the absorbance was read at 450 nm. Data were analyzed using Graphpad Prism software and IC₅₀ values were reported as the concentration of antibody to achieve 50% reduction of DLL4 bound to Notch1.
(§2) Further characterization determined 37D10 and 40B10 were identical rat mAbs.

[2] = biological target: T2, human DLL4, full length, on cells (human, UniProt Q9NR61 27-685); experiment: cell-based or functional assay
T2 sequence (Q9NR61 27-685 limits assumed): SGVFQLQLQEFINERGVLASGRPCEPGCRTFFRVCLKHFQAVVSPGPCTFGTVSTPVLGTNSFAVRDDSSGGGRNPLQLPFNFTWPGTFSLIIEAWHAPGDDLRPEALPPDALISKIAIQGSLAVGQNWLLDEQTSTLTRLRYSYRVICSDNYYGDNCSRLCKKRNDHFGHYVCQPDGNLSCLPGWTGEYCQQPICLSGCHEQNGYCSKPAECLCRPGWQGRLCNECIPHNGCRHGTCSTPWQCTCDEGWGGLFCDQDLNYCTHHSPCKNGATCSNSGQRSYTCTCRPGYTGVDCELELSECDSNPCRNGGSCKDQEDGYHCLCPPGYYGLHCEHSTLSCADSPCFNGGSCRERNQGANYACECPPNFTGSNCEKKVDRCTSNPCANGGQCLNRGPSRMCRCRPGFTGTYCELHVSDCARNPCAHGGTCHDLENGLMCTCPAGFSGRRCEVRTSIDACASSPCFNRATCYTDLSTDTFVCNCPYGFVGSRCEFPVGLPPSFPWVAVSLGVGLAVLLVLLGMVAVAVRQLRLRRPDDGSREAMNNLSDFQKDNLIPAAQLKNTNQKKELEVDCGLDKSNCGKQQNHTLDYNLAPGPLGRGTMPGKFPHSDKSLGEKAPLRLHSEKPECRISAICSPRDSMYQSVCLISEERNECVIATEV

[3] = biological target: T3, cynomolgus monkey DLL4 extracellular domain (cynomolgus monkey); experiment: SPR (Biacore)
T3 construct: extracellular domain; also called cynoDLL4 ECD; Cyno DLL4
Method: (§3) The BIACORE® surface plasmon resonance assay (Biacore, Inc., Piscataway, N.J., US) determines the affinity of antibodies with kinetic measurements of on-rate and off-rate constants. Binding of DLL4 antibodies to a purified recombinant DLL4 extracellular domain (ECD) was determined by surface plasmon resonance-based measurements with a Biacore® instrument (either a Biacore 2000, Biacore 3000, or Biacore T100; GE Healthcare, Piscataway, N.J., US) using running buffer HBS-EPB (10 mM HEPES [pH 7.4], 150 mM NaCl, 3 mM EDTA, 0.1 mg/ml BSA and 0.005% surfactant P20) at 25° C. For example, approximately 9000 RU of goat anti-human Fc specific polyclonal antibody (Thermo Fisher Scientific Inc., Rockford, Ill., US) diluted in 10 mM sodium acetate (pH 4.5) is directly immobilized across a CMS research grade biosensor chip using a standard amine coupling kit according to manufacturer's instructions and procedures at 25 μg/ml. Unreacted moieties on the biosensor surface were blocked with ethanolamine. For kinetic analysis, rate equations derived from the 1:1 Langmuir binding model were fitted simultaneously to multiple antigen injections (using global fit analysis) with the use of Scrubber 2 (BioLogic Software), Biacore Biaevaluation 4.0.1 software or Biacore T100 Evaluation software. Purified antibodies were diluted in running buffer for capture across goat anti-human Fc reaction surfaces. Antibodies to be captured as a ligand (1 μg/ml) were injected over reaction matrices at a flow rate of 10 μl/min. During the assay, all measurements were referenced against the capture surface alone (i.e., with no captured anti-DLL4 antibody). […] The equilibrium dissociation constant KD (M) of the reaction between antibodies and the target antigen was then calculated from the kinetic rate constants by the following formula: KD=Koff/Kₒₙ. Binding was recorded as a function of time and kinetic rate constants were calculated.

[4] = biological target: T4, human DLL4 extracellular domain (human, UniProt Q9NR61 27-529); experiment: SPR (Biacore)
T4 construct: purified recombinant ECD; biotin-labelled or 6xHis-tagged depending on the assay; also called huDLL4 ECD; hu DLL4 ECD
T4 sequence (Q9NR61 27-529 limits assumed): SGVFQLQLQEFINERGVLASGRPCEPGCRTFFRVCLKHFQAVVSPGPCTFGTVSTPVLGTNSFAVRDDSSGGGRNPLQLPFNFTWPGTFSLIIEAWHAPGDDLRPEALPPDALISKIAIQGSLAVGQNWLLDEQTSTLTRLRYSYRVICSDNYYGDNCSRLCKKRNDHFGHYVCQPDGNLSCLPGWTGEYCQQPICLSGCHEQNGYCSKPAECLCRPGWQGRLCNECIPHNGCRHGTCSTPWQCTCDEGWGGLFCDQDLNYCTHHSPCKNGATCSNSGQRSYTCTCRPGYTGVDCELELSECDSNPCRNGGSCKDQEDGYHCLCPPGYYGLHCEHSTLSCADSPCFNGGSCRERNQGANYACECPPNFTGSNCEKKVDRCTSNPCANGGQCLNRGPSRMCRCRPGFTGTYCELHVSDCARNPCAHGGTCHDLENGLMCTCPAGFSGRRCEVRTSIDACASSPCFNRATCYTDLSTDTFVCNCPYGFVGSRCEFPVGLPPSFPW
Method: as §3

mouse DLL4 on cells [5] = biological target: T5, mouse DLL4 on cells (mouse, UniProt Q9JI71 27-686); experiment: FACS, DLL4 cells
T5 construct: whole, on cells; also called mouse DLL4-293G; mu DLL4 cells
T5 sequence (Q9JI71 27-686): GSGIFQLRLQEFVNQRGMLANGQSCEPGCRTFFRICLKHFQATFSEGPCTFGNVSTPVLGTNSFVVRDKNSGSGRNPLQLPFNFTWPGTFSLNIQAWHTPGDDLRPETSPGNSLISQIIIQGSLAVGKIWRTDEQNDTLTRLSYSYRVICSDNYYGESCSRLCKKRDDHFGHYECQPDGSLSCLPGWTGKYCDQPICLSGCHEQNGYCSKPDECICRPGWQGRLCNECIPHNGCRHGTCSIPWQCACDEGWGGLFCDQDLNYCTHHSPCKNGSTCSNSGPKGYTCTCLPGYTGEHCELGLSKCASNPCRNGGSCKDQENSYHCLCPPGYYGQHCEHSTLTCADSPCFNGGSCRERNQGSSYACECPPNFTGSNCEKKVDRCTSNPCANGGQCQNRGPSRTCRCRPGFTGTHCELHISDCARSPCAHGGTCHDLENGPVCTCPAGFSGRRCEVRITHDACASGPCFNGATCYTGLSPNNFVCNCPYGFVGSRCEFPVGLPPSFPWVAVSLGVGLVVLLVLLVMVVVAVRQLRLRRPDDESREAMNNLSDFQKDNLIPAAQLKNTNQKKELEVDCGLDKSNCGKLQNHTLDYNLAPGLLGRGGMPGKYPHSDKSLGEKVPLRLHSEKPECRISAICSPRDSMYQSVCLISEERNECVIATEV
Method: (§4) Stable cell lines overexpressing cell-surface DLL4 were harvested from tissue culture flasks, washed four times and resuspended in phosphate buffered saline (PBS) containing 1% bovine serum albumin and 1 mM CaCl₂ (FACS buffer). 1.5×10⁵ cells were incubated with antibodies at various concentrations in FACS buffer for 60 minutes on ice. […] Following an incubation on ice (4° C., 60 minutes), cells were washed three times and resuspended in FACS buffer. Fluorescence was measured using a Becton Dickinson FACSCalibur-HTS (Becton Dickinson, San Jose, Calif., US). Data were analyzed using Graphpad Prism software and EC₅₀ values were reported as the concentration of antibody to achieve 50% of maximal DLL4 antibodies binding to DLL4 expressing cells. […]

[6] = biological target: T2, human DLL4, full length, on cells; experiment: FACS, DLL4 cells
Method: as §4

[7] = biological target: T1, mouse DLL4 extracellular domain; experiment: SPR (Biacore)
Outline: (§5)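 Purified anti-DLL4 antibodies (1 μg/ml) captured on immobilized goat anti-human Fc, with DLL4 ECD injected as analyte; HBS-EPB running buffer (pH 7.4), 25° C, referenced against capture-only surface. On/off rates from global 1:1 Langmuir fit; KD = Koff/Kon.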

[8] = biological target: T6, rat DLL4 extracellular domain (rat, UniProt D3ZHH1 28-530); experiment: SPR (Biacore)
T6 construct: extracellular domain; also called ratDLL4 ECD
T6 sequence (D3ZHH1 28-530): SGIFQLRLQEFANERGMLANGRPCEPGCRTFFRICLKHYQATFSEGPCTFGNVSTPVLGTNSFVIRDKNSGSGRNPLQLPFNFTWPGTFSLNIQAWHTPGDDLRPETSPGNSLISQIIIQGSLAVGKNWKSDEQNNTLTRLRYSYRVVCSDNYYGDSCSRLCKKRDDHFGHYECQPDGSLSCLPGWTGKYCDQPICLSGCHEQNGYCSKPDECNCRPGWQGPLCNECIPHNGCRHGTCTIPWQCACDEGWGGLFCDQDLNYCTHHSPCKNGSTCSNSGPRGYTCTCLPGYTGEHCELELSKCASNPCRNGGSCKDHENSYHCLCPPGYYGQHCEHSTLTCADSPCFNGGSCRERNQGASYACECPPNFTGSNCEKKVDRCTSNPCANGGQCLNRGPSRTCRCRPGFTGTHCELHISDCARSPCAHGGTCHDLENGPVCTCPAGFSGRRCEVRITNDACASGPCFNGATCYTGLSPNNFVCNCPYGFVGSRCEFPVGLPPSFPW
Outline: as §5

mouse DLL4 on cells [9] = biological target: T5, mouse DLL4 on cells; experiment: competition FACS: huNotch-1-biotin to DLL4 cells
Method: (§6) Notch blocking assay: Briefly, stable cell lines overexpressing cell-surface DLL4 were harvested from tissue culture flasks and re-suspended in phosphate buffered saline (PBS) containing 1% bovine serum albumin and 1 mM CaCl₂ (FACS buffer). HEK293G-DLL4 cells were dispensed into 96-well plate (v-bottom) at 1.5×10⁵ cells/well in FACS buffer. After spinning down cells and discarding the supernatant, 50 μL of purified IgG with appropriate dilution were added to each well, and incubated on ice at 4° C. for 60 minutes, followed by addition of 50 μL/well of Notch1-biotin at 0.2 μg/mL for human DLL4-293G or 2.0 μg/mL for mouse DLL4-293G (1.0 or 0.1 μg/mL final) for an additional 1 hour incubation ice at 4° C. After washing the cells two times with FACS buffer, 50 μL of R-phycoerythrin-conjugated streptavidin (1:150 dilution in FACS buffer) (Jackson ImmunoResearch, West Grove, Pa., Cat.#016-110-084) were added. Following an incubation on ice (4° C., 60 minutes), cells were washed three times and resuspended in FACS buffer. Fluorescence was measured using a Becton Dickinson FACSCalibur-HTS (Becton Dickinson, San Jose, Calif.). Data were analyzed using Graphpad Prism software, and IC₅₀ values were reported as the concentration of antibody to achieve 50% reduction of Notch1 bound to DLL4 expressing cells. […]

[10] = biological target: T2, human DLL4, full length, on cells; experiment: competition FACS: huNotch-1-biotin to DLL4 cells
Method: as §6

[11] = biological target: T4, human DLL4 extracellular domain; experiment: competition ELISA: biotin-DLL4 ECD to coated huNotch-1
Method: as §1, §2

[12] = biological target: T1, mouse DLL4 extracellular domain; experiment: binding ELISA, DLL4 ECD
[13] = biological target: T4, human DLL4 extracellular domain; experiment: binding ELISA, DLL4 ECD
mouse DLL4 on cells [14] = biological target: T5, mouse DLL4 on cells; experiment: FACS, DLL4 cells; remark: listed apart in the source
[15] = biological target: T2, human DLL4, full length, on cells; experiment: FACS, DLL4 cells; remark: listed apart in the source
mouse DLL4 on cells [16] = biological target: T5, mouse DLL4 on cells; experiment: FACS, DLL4 cells; remark: listed apart in the source
[17] = biological target: T2, human DLL4, full length, on cells; experiment: FACS, DLL4 cells; remark: listed apart in the source
[18] = biological target: T2, human DLL4, full length, on cells; experiment: cell-based or functional assay; remark: listed apart in the source
mouse DLL4 on cells [19] = biological target: T5, mouse DLL4 on cells; experiment: competition FACS: huNotch-1 to DLL4 cells
Method: (§7) Notch blocking assay: Briefly, stable cell lines overexpressing cell-surface DLL4 were harvested from tissue culture flasks and re-suspended in phosphate buffered saline (PBS) containing 1% bovine serum albumin and 1 mM CaCl₂ (FACS buffer). HEK293G-DLL4 cells were dispensed into 96-well plate (v-bottom) at 1.5×10⁵ cells/well in FACS buffer. After spinning down cells and discarding the supernatant, 50 μL of purified IgG with appropriate dilution were added to each well, and incubated on ice at 4° C. for 60 minutes, followed by addition of 50 μL/well of Notch1-biotin at 0.2 μg/mL for human DLL4-293G or 2.0 μg/mL for mouse DLL4-293G (1.0 or 0.1 μg/mL final) for an additional 1 hour incubation ice at 4° C. After washing the cells two times with FACS buffer, 50 μL of R-phycoerythrin-conjugated streptavidin (1:150 dilution in FACS buffer) (Jackson ImmunoResearch, West Grove, Pa., Cat.#016-110-084) were added. Following an incubation on ice (4° C., 60 minutes), cells were washed three times and resuspended in FACS buffer. Fluorescence was measured using a Becton Dickinson FACSCalibur-HTS (Becton Dickinson, San Jose, Calif.). Data were analyzed using Graphpad Prism software, and IC₅₀ values were reported as the concentration of antibody to achieve 50% reduction of Notch1 bound to DLL4 expressing cells.

[20] = biological target: T2, human DLL4, full length, on cells; experiment: competition FACS: huNotch-1 to DLL4 cells
Method: as §7

[21] = biological target: T4, human DLL4 extracellular domain; experiment: SPR (Biacore); remark: listed apart in the source
[22] = biological target: T3, cynomolgus monkey DLL4 extracellular …; experiment: binding ELISA
[23] = biological target: T1, mouse DLL4 extracellular domain; experiment: binding ELISA
[24] = biological target: T4, human DLL4 extracellular domain; experiment: binding ELISA
[25] = biological target: T1, mouse DLL4 extracellular domain; experiment: competition ELISA vs Notch-1
[26] = biological target: T4, human DLL4 extracellular domain; experiment: competition ELISA vs Notch-1

Binder	IC50 [1] [nM]	Kd [3] [nM]	kon [3] [M⁻¹ s⁻¹]	Kd [4] [nM]	koff [4] [s⁻¹]	kon [4] [M⁻¹ s⁻¹]	EC50 (mouse DLL4 on cells [5]) [nM]	EC50 [6] [nM]	Kd [7] [nM]	koff [7] [s⁻¹]	kon [7] [M⁻¹ s⁻¹]	IC50 (mouse DLL4 on cells [9]) [nM]	IC50 [10] [nM]	other results
B1	19.8	11.6	110000	10.3	0.0012	120000	2.1	> 50	1.3	9e-05	70000	1.6	205	Notch activation Inhibition (IC50, nM), huDLL4 cell/Notch reporter cells [2]: 2.7 nM; koff [3]: 0.0012 s⁻¹; binding result [8]: no binding
B2	3.36	< 617	40000	484	0.07	140000	0.7	2.3	135	0.0135	100000	3.8	5.5	IC50 [11]: 5.39 nM; EC50 [12]: 0.14 nM; EC50 [13]: 0.12 nM
B3	–	–	–	–	–	–	–	–	24	–	–	–	–	EC50 (mouse DLL4 on cells [14]): 0.74 nM; EC50 [15]: 19.6 nM; EC50 (mouse DLL4 on cells [16]): 0.53 nM; EC50 [17]: 6.29 nM; Reporter Assay (EC50, nM) [18]: 5.98 nM; IC50 (mouse DLL4 on cells [19]): 0.682 nM; IC50 [20]: 2.34 nM; Kd [21]: 9 nM; EC50 [22]: 0.33 nM; EC50 [23]: 0.3 nM; EC50 [24]: 0.2 nM; IC50 [25]: 3.5 nM; IC50 [26]: 1.8 nM
